Where a chain is given by its changes, count along the chain named. Names and notes keep the numbering of the source.
Substrate: CCCCCCCCCCCCCCCC(=O)Oc1ccc([N+](=O)[O-])cc1
Experiment: purified protein
Type: biochemical, Rhizomucor miehei
Conditions: 50 mM PBS pH 8.0, 40 °C, 5 min
[1] = N93 [sic], made on N9A/N59A template, N-glycosylated
[2] = printed N183, made on N9A/N59A template, N-glycosylated
[3] = propeptide N-glycosylation sites removed
[4] = N218, made on N9A/N59A template, N-glycosylated
[5] = N115, made on N9A/N59A template, N-glycosylated
[6] = N260 [sic], made on N9A/N59A template, N-glycosylated

B1: ProRML (Rhizomucor miehei lipase with propeptide) (Rhizomucor miehei) (protein)
chain: AVPIKRQSNSTVDSLPPLIPSRTSAPSSSPSTTDPEAPAMSRNGPLPSDVETKYGMALNATSYPDSVVQAMSIDGGIRAATSQEINELTYYTTLSANSYCRTVIPGATWDCIHCDATEDLKIIKTWSTLIYDTNAMVARGDSEKTIYIVFRGSSSIRNWIADLTFVPVSYPPVSGTKVHKGFLDSYGEVQNELVATVLDQFKQYPSYKVAVTGHSLGGATALLCALDLYQREEGLSSSNLFLYTQGQPRVGDPAFANYVVSTGIPYRRTVNERDIVPHLPPAAFGFLHAGEEYWITDNSPETVQVCTSDLETSDCSNSIVPFTSVLDHLSYFGINTGLCT
notes: propeptide plus mature peptide, plasmid pPIC9K (alpha-factor secretion), Pichia pastoris GS115, HisTrap purified; about 40 kDa unglycosylated, mutants about 55 kDa N-glycosylated
For B1, the Km was 1160 µM, the kcat was 1.75 ± 0.0493 s⁻¹ and the kcat/Km was 1510 ± 42.5 M⁻¹ s⁻¹.

B2: ProRML (Rhizomucor miehei lipase with propeptide) (Rhizomucor miehei; N32A/N82A/T116N) (protein)
chain: B1 chain with N9A, N59A, T93N
notes: as for B1
B2 gave a Km [1] of 4700 µM, a kcat [1] of 63.6 ± 2.62 s⁻¹ and a kcat/Km [1] of 13500 ± 558 M⁻¹ s⁻¹.

B3: ProRML (Rhizomucor miehei lipase with propeptide) (Rhizomucor miehei; L206N/N32A/N82A) (protein)
chain: B1 chain with N9A, N59A, L183N
notes: as for B1
Protein B3 has a Km [2] of 360 µM, a kcat [2] of 1.186 ± 0.00633 s⁻¹ and a kcat/Km [2] of 3258 ± 17.5 M⁻¹ s⁻¹.

B4: ProRML (Rhizomucor miehei lipase with propeptide) (Rhizomucor miehei; N32A/N82A) (protein)
chain: B1 chain with N9A, N59A
notes: as for B1
B4 was tested, and the Km [3] was 350 µM, the kcat [3] was 0.844 ± 0.0385 s⁻¹ and the kcat/Km [3] was 2420 ± 111 M⁻¹ s⁻¹.

B5: ProRML (Rhizomucor miehei lipase with propeptide) (Rhizomucor miehei; G241N/N32A/N82A) (protein)
chain: B1 chain with N9A, N59A, G218N
notes: as for B1
B5 showed a Km [4] of 13200 µM and a kcat/Km [4] of 64800 ± 1970 M⁻¹ s⁻¹.

B6: ProRML (Rhizomucor miehei lipase with propeptide) (Rhizomucor miehei; D138N/N32A/N82A) (protein)
chain: B1 chain with N9A, N59A, D115N
notes: as for B1
For B6, the Km [5] was 640 µM, the kcat [5] was 7.26 ± 0.277 s⁻¹ and the kcat/Km [5] was 11300 ± 432 M⁻¹ s⁻¹.

B7: ProRML (Rhizomucor miehei lipase with propeptide) (Rhizomucor miehei; N32A/N82A/V283N) (protein)
chain: B1 chain with N9A, N59A, V260N
notes: as for B1
With B7 the Km [6] was 1250 µM, the kcat [6] was 4.89 ± 0.149 s⁻¹ and the kcat/Km [6] was 3930 ± 120 M⁻¹ s⁻¹.
